Series [1] deals with T1, Orange Carotenoid Protein, dark-adapted state (OCP^O), wild type, canthaxanthin-binding holo form (Synechocystis sp. PCC 6803), P74102.
T1 chain: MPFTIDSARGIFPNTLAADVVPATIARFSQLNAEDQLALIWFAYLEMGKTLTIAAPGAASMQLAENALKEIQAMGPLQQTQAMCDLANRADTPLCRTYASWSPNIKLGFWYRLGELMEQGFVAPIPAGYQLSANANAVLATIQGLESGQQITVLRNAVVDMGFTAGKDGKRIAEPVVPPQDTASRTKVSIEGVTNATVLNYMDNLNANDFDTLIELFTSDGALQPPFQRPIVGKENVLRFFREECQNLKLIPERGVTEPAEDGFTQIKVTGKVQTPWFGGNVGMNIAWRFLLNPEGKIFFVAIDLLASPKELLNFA
Put plainly: SEC. Conditions: remark: other sources report otherwise.

For series [2], the target named is T1, Orange Carotenoid Protein, dark-adapted …. Put plainly: SAXS. Conditions: remark: other sources report otherwise.
For series [3] the target is unchanged. Description: transient grating spectroscopy. Conditions: remark: other sources report otherwise.
In series [4] the target is T2, apo-OCP (carotenoid-free Orange Carotenoid Protein) (Synechocystis sp. PCC 6803), P74102.
T2 chain: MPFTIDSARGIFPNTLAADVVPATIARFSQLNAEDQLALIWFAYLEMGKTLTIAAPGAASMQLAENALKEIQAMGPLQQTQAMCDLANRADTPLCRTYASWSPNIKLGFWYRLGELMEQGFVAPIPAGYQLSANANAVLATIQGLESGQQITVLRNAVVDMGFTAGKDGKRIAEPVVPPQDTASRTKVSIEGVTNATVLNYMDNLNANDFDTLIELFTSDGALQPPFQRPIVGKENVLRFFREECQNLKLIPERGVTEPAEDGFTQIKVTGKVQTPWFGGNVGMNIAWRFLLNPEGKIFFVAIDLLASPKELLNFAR
Put plainly: SEC. Conditions: remark: other sources report otherwise.

Series [5] concerns the target T2, apo-OCP (carotenoid-free Orange …). Description: SAXS. Conditions: remark: other sources report otherwise.
Series [6] deals with T3, Orange Carotenoid Protein, light-adapted state (OCP^R), wild type, canthaxanthin-binding holo form (Synechocystis sp. PCC 6803), P74102.
T3 chain: T2 chain
Put plainly: SEC. Conditions: remark: other sources report otherwise.

Series [7] addresses T3, Orange Carotenoid Protein, …. Description: SAXS. Conditions: remark: other sources report otherwise.
Series [8] deals with the molecule itself. Put plainly: SEC. For orientation: Size exclusion chromatography separates by hydrodynamic size, large species first.

Residue numbers refer to the chain shown, from its start. In names and notes the source's numbering stands.

B1: Orange Carotenoid Protein, dark-adapted state (OCP^O), wild type, canthaxanthin-binding holo form, P74102 1-316 (natural protein)
chain: T1 chain
For B1, in series [1], the Kd (usually the constant that tells how readily two partners part at equilibrium) turned out to be 10000 nM and the stoichiometry N (as a rule, a count of units in the complex or per binding partner) came to 2. Further, the stoichiometry N in series [2] stood at 2. In series [3], this molecule had a fitted dimer fraction (100 µM) of 0.6 and a k1d (rate constant of the photo-induced dissociation of the OCP^O dimer) of 1000 s⁻¹.

B2: apo-OCP (carotenoid-free Orange Carotenoid Protein), P74102 1-317 (natural protein)
chain: T2 chain
On to B2, for which, in series [4], the Kd is 500 nM and the stoichiometry N came out at 2. The same molecule returned a stoichiometry N in series [5] of 2.

B3: Orange Carotenoid Protein, light-adapted state (OCP^R), wild type, canthaxanthin-binding holo form, P74102 1-317 (natural protein)
chain: T2 chain
As to B3, in series [6], the Kd was 1800 nM and the stoichiometry N was 2. Besides, the stoichiometry N in series [7] is 2.

B4: OCP(R27L) mutant, light-adapted state (natural protein)
chain: T2 chain with R27L
Take B4: in series [8], the “stoichiometry N” value worked out at 2.

For the origin of these results see article doi:10.1101/2025.05.26.656073 (bioRxiv, 2025).
